Test results from the supplement of paper PMC10567573.

B1: FAM46D (parent)
chain: LELKFVSSLRRQFEFSVDSFQIVL

Variants of: B1
Test: protein stability index of a GFP-peptide fusion (GPS, HEK-293T) (PSI 1-6); higher = more stable
Settings: c terminus: a fixed tail appended
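Also: lentivirally expressed fusions sorted by FACS into six bins by GFP to DsRed ratio, PSI derived from sequencing read proportions per bin multiplied by bin number.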

| Variant | protein stability index |
| --- | --- |
| LYLKFVSSLRRQFEFSVDSFQIVL | 3.04 |
| LRLKFVSSLRRQFEFSVDSFQIVL | 3.42 |
| LMLKFVSSLRRQFEFSVDSFQIVL | 2.57 |
| LNLKFVSSLRRQFEFSVDSFQIVL | 2.6 |
| LWLKFVSSLRRQFEFSVDSFQIVL | 2.81 |
| LILKFVSSLRRQFEFSVDSFQIVL | 1.99 |
| LELKFVSSLRRQFENSVDSFQIVL | 4.46 |
| LELKFVSSLRRQFEQSVDSFQIVL | 3.16 |
| LELKFVSSLRRQFEHSVDSFQIVL | 5.32 |
| LELKFVSSLRRQFERSVDSFQIVL | 2.68 |
| LELKFVSSLRRQFEPSVDSFQIVL | 2.92 |
| LELKFVSSLRRQFEKSVDSFQIVL | 2.13 |
| LELKFVSSLRRQFEWSVDSFQIVL | 3.57 |
| LELKFVSSLRRQFEESVDSFQIVL | 3.22 |
| LELKFVSSLRRQFETSVDSFQIVL | 2.43 |
| LELKFVSSLRRQFECSVDSFQIVL | 2.42 |
| LELKFVSSLRRQFEISVDSFQIVL | 4.07 |
| LELKFVSSLRRQFESSVDSFQIVL | 3.33 |
| LELKFVSSLRRQFEFCVDSFQIVL | 3.91 |
| LELKFVSSLRRQFEFPVDSFQIVL | 3.75 |
| LELKFVSSLRRQFEFDVDSFQIVL | 3.15 |
| LELKFVSSLRRQFEFVVDSFQIVL | 3.91 |
| LELKFVSSLRRQFEFYVDSFQIVL | 2.83 |
| LELKFVSSLRRQFEFMVDSFQIVL | 3.57 |

| Variant | protein stability index |
| --- | --- |
| LELKFVSSLRRQFEFRVDSFQIVL | 3.43 |
| LELRFVSSLRRQFEFSVDSFQIVL | 3.25 |
| LELAFVSSLRRQFEFSVDSFQIVL | 2.28 |
| LELVFVSSLRRQFEFSVDSFQIVL | 4.21 |
| LELCFVSSLRRQFEFSVDSFQIVL | 3.62 |
| LELFFVSSLRRQFEFSVDSFQIVL | 3.11 |
| LELMFVSSLRRQFEFSVDSFQIVL | 4.16 |
| LELEFVSSLRRQFEFSVDSFQIVL | 2.38 |
| LELPFVSSLRRQFEFSVDSFQIVL | 3.77 |
| LELQFVSSLRRQFEFSVDSFQIVL | 3.84 |
| LELKFVSSLRRQFAFSVDSFQIVL | 3.98 |
| LELKFVSSLRRQFGFSVDSFQIVL | 3.4 |
| LELKFVSSLRRQFYFSVDSFQIVL | 3.27 |
| LELKFVSSLRRQFSFSVDSFQIVL | 2.66 |
| LELKFVSSLRRQFPFSVDSFQIVL | 3.67 |
| LELKFVSSLRRQFEFSYDSFQIVL | 1.51 |
| LELKFVSSLRRQFEFSADSFQIVL | 2.4 |
| LELKFVSSLRRQFEFSMDSFQIVL | 4.44 |
| LELKFVSSLRRQFEFSHDSFQIVL | 3.65 |
| LELKFVSSLRRQFEFSWDSFQIVL | 4.01 |
| LELKFVSSLRRQFEFSTDSFQIVL | 2.76 |
| LELKFVSSLRRQFEFSDDSFQIVL | 4.26 |
| LELKFVSSLRRQFEFSEDSFQIVL | 1.91 |
| LELKFVSSLRRQFEFSNDSFQIVL | 3.45 |

| Variant | protein stability index |
| --- | --- |
| LELKDVSSLRRQFEFSVDSFQIVL | 2.09 |
| LELKVVSSLRRQFEFSVDSFQIVL | 3.54 |
| LELKNVSSLRRQFEFSVDSFQIVL | 2.37 |
| LELKAVSSLRRQFEFSVDSFQIVL | 3.94 |
| LELKLVSSLRRQFEFSVDSFQIVL | 1.96 |
| LELKTVSSLRRQFEFSVDSFQIVL | 2.8 |
| LELKIVSSLRRQFEFSVDSFQIVL | 3.77 |
| LELKSVSSLRRQFEFSVDSFQIVL | 3.1 |
| LELKFVSSLHRQFEFSVDSFQIVL | 2.93 |
| LELKFVSSLMRQFEFSVDSFQIVL | 2.72 |
| LELKFVSSLVRQFEFSVDSFQIVL | 2.04 |
| LELKFVSSLARQFEFSVDSFQIVL | 3 |
| LELKFVSSLNRQFEFSVDSFQIVL | 2.23 |
| LELKFVSSLCRQFEFSVDSFQIVL | 2.67 |
| LELKFVSSLFRQFEFSVDSFQIVL | 2.79 |
| LELKFVSSLTRQFEFSVDSFQIVL | 2.83 |
| LELKFVSSLYRQFEFSVDSFQIVL | 2.17 |
| LELKFVSSLSRQFEFSVDSFQIVL | 3.46 |
| LELKFVSSLRRQFEFSVDPFQIVL | 2.18 |
| LELKFVSSLRRQFEFSVDMFQIVL | 4.08 |
| LELKFVSSLRRQFEFSVDNFQIVL | 4 |
| LELKFVSSLRRQFEFSVDFFQIVL | 3.6 |
| LELKFVSSLRRQFEFSVDCFQIVL | 2.44 |
| LELKFVSSLRRQFEFSVDDFQIVL | 3.06 |

| Variant | protein stability index |
| --- | --- |
| LELKFVSSLRRQFEFSVDVFQIVL | 2.12 |
| LELKFVSSLRRQFEFSVDKFQIVL | 2.88 |
| LELKFVSSLRTQFEFSVDSFQIVL | 3.4 |
| LELKFVSSLRMQFEFSVDSFQIVL | 2.27 |
| LELKFVSSLRGQFEFSVDSFQIVL | 3.69 |
| LELKFVSSLRSQFEFSVDSFQIVL | 2.99 |
| LELKFVSSLRLQFEFSVDSFQIVL | 2.62 |
| LELKFVSSLRWQFEFSVDSFQIVL | 4.32 |
| LELKFVSSLRNQFEFSVDSFQIVL | 3.06 |
| LELKFVSSLRRQFEFSVDSFQIVV | 1.77 |
| LELKFVSSLRRQFEFSVDSFQIVS | 3.63 |
| LELKFVSSLRRQFEFSVDSFQIVK | 2.35 |
| LELKFVSSLRRQFEFSVDSFQIVW | 5.02 |
| LELKFVSSLRRQFEFSVDSFQIVQ | 2.27 |
| LELKFVSSLRRQFEFSVDSFQIVD | 1.78 |
| LEFKFVSSLRRQFEFSVDSFQIVL | 2.43 |
| LEYKFVSSLRRQFEFSVDSFQIVL | 2.2 |
| LEAKFVSSLRRQFEFSVDSFQIVL | 3.39 |
| LEKKFVSSLRRQFEFSVDSFQIVL | 3.37 |
| LEHKFVSSLRRQFEFSVDSFQIVL | 1.82 |
| LEEKFVSSLRRQFEFSVDSFQIVL | 1.66 |
| LEQKFVSSLRRQFEFSVDSFQIVL | 2.38 |
| LEVKFVSSLRRQFEFSVDSFQIVL | 3 |
| LEWKFVSSLRRQFEFSVDSFQIVL | 2.77 |

| Variant | protein stability index |
| --- | --- |
| LEGKFVSSLRRQFEFSVDSFQIVL | 2.11 |
| LELKFVSSLRRQFEFSVDSFQTVL | 2.21 |
| LELKFVSSLRRQFEFSVDSFQAVL | 2.26 |
| LELKFVSSLRRQFEFSVDSFQLVL | 2.7 |
| LELKFVSSLRRQFEFSVDSFQGVL | 3.17 |
| LELKFVSSLRRQFEFSVDSFQPVL | 4.29 |
| LELKFVSSLRRQFEFSVDSFQKVL | 1.71 |
| LELKFVSSLRRQFEFSVDSFQYVL | 3.01 |
| LELKFVSSLRRQFEFSVDSFQWVL | 2.8 |
| LELKFVSSLRRQFEFSVDSFQNVL | 3.28 |
| LELKFVSSLRRQFEFSVDSFQVVL | 3.07 |
| LELKFVSSWRRQFEFSVDSFQIVL | 3.47 |
| LELKFVSSARRQFEFSVDSFQIVL | 2.93 |
| LELKFVSSPRRQFEFSVDSFQIVL | 3.04 |
| LELKFVSSCRRQFEFSVDSFQIVL | 3.2 |
| LELKFVSSKRRQFEFSVDSFQIVL | 2.41 |
| LELKFVSSNRRQFEFSVDSFQIVL | 2.64 |
| LELKFVSSDRRQFEFSVDSFQIVL | 3.93 |
| LELKFVSSLRRQFEFSVDSFQIRL | 2.76 |
| LELKFVSSLRRQFEFSVDSFQIGL | 1.94 |
| LELKFVSSLRRQFEFSVDSFQITL | 2.62 |
| LELKFVSSLRRQFEFSVDSFQIIL | 2.6 |
| LELKFVSSLRRQFEFSVDSFQIWL | 3.15 |
| LELKFVSSLRRQFEFSVDSFQIEL | 4.1 |

| Variant | protein stability index |
| --- | --- |
| LELKFVSSLRRQFEFSVDSFQIPL | 2.14 |
| FELKFVSSLRRQFEFSVDSFQIVL | 3.04 |
| TELKFVSSLRRQFEFSVDSFQIVL | 2.9 |
| RELKFVSSLRRQFEFSVDSFQIVL | 2.33 |
| IELKFVSSLRRQFEFSVDSFQIVL | 2.7 |
| MELKFVSSLRRQFEFSVDSFQIVL | 4.32 |
| PELKFVSSLRRQFEFSVDSFQIVL | 2.78 |
| KELKFVSSLRRQFEFSVDSFQIVL | 2.36 |
| LELKFVSSLRRQFEFSVGSFQIVL | 2.54 |
| LELKFVSSLRRQFEFSVSSFQIVL | 2.94 |
| LELKFVSSLRRQFEFSVNSFQIVL | 3.43 |
| LELKFVSSLRRQFEFSVKSFQIVL | 3.6 |
| LELKFVSSLRRQFEFSVESFQIVL | 1.74 |
| LELKFVSSLRRQFEFSVRSFQIVL | 3.4 |
| LELKFVSSLRRQFEFSVISFQIVL | 3.49 |
| LELKFVSSLRRQFEFSVPSFQIVL | 3.29 |
| LELKFVSSLRRQFEFSVYSFQIVL | 3.18 |
| LELKFVSSLRRQFEFSVFSFQIVL | 2.06 |
| LELKFVSSLRRQFEFSVCSFQIVL | 2 |
| LELKFVSSLRRQFEFSVDSFRIVL | 3.02 |
| LELKFVSSLRRQFEFSVDSFWIVL | 2.89 |
| LELKFVSSLRRQFEFSVDSFFIVL | 2.74 |
| LELKFVSSLRRQFEFSVDSFGIVL | 3.02 |
| LELKFVSGLRRQFEFSVDSFQIVL | 2.81 |

| Variant | protein stability index |
| --- | --- |
| LELKFVSALRRQFEFSVDSFQIVL | 2.57 |
| LELKFVSVLRRQFEFSVDSFQIVL | 1.71 |
| LELKFVSYLRRQFEFSVDSFQIVL | 2.44 |
| LELKFVSWLRRQFEFSVDSFQIVL | 2.98 |
| LELKFVSNLRRQFEFSVDSFQIVL | 2.92 |
| LELKFVSLLRRQFEFSVDSFQIVL | 3.46 |
| LELKFVSKLRRQFEFSVDSFQIVL | 2.05 |
| LELKFVSCLRRQFEFSVDSFQIVL | 2.96 |
| LELKFVSSLRRQFEFSVDSMQIVL | 2.58 |
| LELKFVSSLRRQFEFSVDSQQIVL | 1.61 |
| LELKFVSSLRRQFEFSVDSKQIVL | 3.31 |
| LELKFVSSLRRQFEFSVDSDQIVL | 2.94 |
| LELKFVSSLRRQFEFSVDSLQIVL | 2.59 |
| LELKFVSSLRRQFEFSVDSHQIVL | 2.62 |
| LELKFVSSLRRQFEFSVDSRQIVL | 2.22 |
| LELKFQSSLRRQFEFSVDSFQIVL | 1.56 |
| LELKFESSLRRQFEFSVDSFQIVL | 2.75 |
| LELKFPSSLRRQFEFSVDSFQIVL | 2.08 |
| LELKFCSSLRRQFEFSVDSFQIVL | 2.22 |
| LELKFGSSLRRQFEFSVDSFQIVL | 2.81 |
| LELKFTSSLRRQFEFSVDSFQIVL | 3.31 |
| LELKFHSSLRRQFEFSVDSFQIVL | 2.9 |
| LELKFSSSLRRQFEFSVDSFQIVL | 2.49 |
| LELKFDSSLRRQFEFSVDSFQIVL | 2.73 |

| Variant | protein stability index |
| --- | --- |
| LELKFFSSLRRQFEFSVDSFQIVL | 2.38 |
| LELKFNSSLRRQFEFSVDSFQIVL | 4.62 |
| LELKFKSSLRRQFEFSVDSFQIVL | 3.51 |
| LELKFYSSLRRQFEFSVDSFQIVL | 3.16 |
| LELKFVSSLRRCFEFSVDSFQIVL | 1.78 |
| LELKFVSSLRRYFEFSVDSFQIVL | 2.8 |
| LELKFVSSLRRMFEFSVDSFQIVL | 3.09 |
| LELKFVSSLRRTFEFSVDSFQIVL | 2.42 |
| LELKFVSSLRRWFEFSVDSFQIVL | 3.97 |
| LELKFVRSLRRQFEFSVDSFQIVL | 2.91 |
| LELKFVGSLRRQFEFSVDSFQIVL | 2.76 |
| LELKFVISLRRQFEFSVDSFQIVL | 2.85 |
| LELKFVPSLRRQFEFSVDSFQIVL | 2.67 |
| LELKFVDSLRRQFEFSVDSFQIVL | 3.25 |
| LELKFVASLRRQFEFSVDSFQIVL | 3.21 |
| LELKFVNSLRRQFEFSVDSFQIVL | 1.88 |
| LELKFVSSLRRQEEFSVDSFQIVL | 2.55 |
| LELKFVSSLRRQQEFSVDSFQIVL | 2.84 |
| LELKFVSSLRRQSEFSVDSFQIVL | 2.67 |
| LELKFVSSLRRQWEFSVDSFQIVL | 3.64 |
